Like-named read-outs stand apart in the source and are kept apart here.
Columns and labels:
[1] = target: eHead-H3HK68_v1 (wild-type H3 head domain monomer) (influenza A virus) (UniProt Q91MA7); experiment: SPR
[2] = target: eHead_H1Solomon (wild-type H1 head domain monomer) (influenza A virus) (UniProt B4URD6); experiment: SPR
[3] = target: H14 HA A/mallard duck/Astrakhan/263/1982, recombinant (influenza A virus); experiment: ELISA
[4] = target: H3 HA A/Switzerland/9715293/2013, recombinant soluble trimer (influenza A virus); experiment: ELISA
[5] = target: H3 HA A/Texas/50/2012, recombinant soluble trimer (influenza A virus); experiment: ELISA
[6] = target: H3 HA A/Minnesota/11/10, recombinant soluble trimer (influenza A virus); experiment: ELISA
[7] = target: H16 HA A/black-headed gull/Sweden/4/1999, recombinant (influenza A virus); experiment: ELISA
[8] = target: H1 HA A/Solomon Islands/03/2006 (H1N1), recombinant soluble trimer (influenza A virus); experiment: ELISA
[9] = target: H9 HA A/Hong Kong/1073/99, recombinant (influenza A virus); experiment: ELISA
[10] = target: H5 HA A/Vietnam/1203/2004 (H5N1), recombinant (influenza A virus); experiment: ELISA
[11] = target: H7 HA A/Shanghai/2/2013 (H7N9), recombinant uncleaved trimer (influenza A virus); experiment: ELISA
[12] = target: H7 HA A/New York/107/2003, recombinant (influenza A virus); experiment: ELISA
[13] = target: H2 HA A/Singapore/1/1957, recombinant soluble trimer (influenza A virus); experiment: ELISA
[14] = target: H13 HA A/gull/Maryland/704/1977, recombinant (influenza A virus); experiment: ELISA
[15] = target: H1 HA A/Texas/36/1991 (H1N1), recombinant soluble trimer (influenza A virus); experiment: ELISA
[16] = target: H5 HA A/Indonesia/05/2005 (H5N1), recombinant (influenza A virus); experiment: ELISA
[17] = target: H1 HA A/Texas/36/1991 (H1N1), recombinant soluble trimer (influenza A virus); experiment: ELISA on coated recombinant HA; row printed A/Texas/38/1991
[18] = target: A/Duck/Czechoslovakia/1956 (Influenza A virus); experiment: ELISA on coated recombinant HA; row printed A/Duck/Czechoslovakia/1958
[19] = target: purified HA protein of H1N1 A/California/07/2009 (Sino Biological 11085-V08B) (influenza A virus); experiment: cell-based or functional assay
[20] = target: H7 HA A/New York/107/2003, recombinant (influenza A virus)
[21] = target: H12 HA A/duck/Alberta/60/1976, recombinant (influenza A virus); experiment: ELISA on coated recombinant HA
[22] = target: H14 HA A/mallard duck/Astrakhan/263/1982, recombinant (influenza A virus); experiment: ELISA on coated recombinant HA
[23] = target: A/California/07/2004 (Influenza A virus); experiment: ELISA on coated recombinant HA
[24] = target: H3 HA A/Texas/50/2012, recombinant soluble trimer (influenza A virus); experiment: ELISA on coated recombinant HA
[25] = target: A/Duck/Czechoslovakia/1956 (Influenza A virus); experiment: ELISA on coated recombinant HA
[26] = target: H1 HA A/Solomon Islands/03/2006 (H1N1), recombinant soluble trimer (influenza A virus); experiment: ELISA on coated recombinant HA
[27] = target: H15 HA A/shearwater/Western Australia/2576/1979, recombinant (influenza A virus); experiment: ELISA on coated recombinant HA
[28] = target: A/Taiwan/2/2013 (Influenza A virus); experiment: ELISA on coated recombinant HA
[29] = target: H5 HA A/Vietnam/1203/2004 (H5N1), recombinant (influenza A virus); experiment: ELISA on coated recombinant HA
[30] = target: H7 HA A/Shanghai/2/2013 (H7N9), recombinant uncleaved trimer (influenza A virus); experiment: ELISA on coated recombinant HA
[31] = target: A/Turkey/Wisconsin/1/1966 (Influenza A virus); experiment: ELISA on coated recombinant HA
[32] = target: H2 HA A/Singapore/1/1957, recombinant soluble trimer (influenza A virus); experiment: ELISA on coated recombinant HA
[33] = target: H1 HA A/Texas/36/1991 (H1N1), recombinant soluble trimer (influenza A virus); experiment: ELISA on coated recombinant HA
[34] = target: A/Fort Monmouth/1/1947 (Influenza A virus); experiment: ELISA on coated recombinant HA
[35] = target: H5 HA A/Indonesia/05/2005 (H5N1), recombinant (influenza A virus); experiment: ELISA on coated recombinant HA
[36] = target: A/Chicken/Germany/N/1949 (Influenza A virus); experiment: ELISA on coated recombinant HA
[37] = target: A/Yokohama/110/2019 (Influenza A virus); experiment: ELISA on coated recombinant HA
[38] = target: A/Hong Kong/125/2017 (Influenza A virus); experiment: ELISA on coated recombinant HA
[39] = target: H3 HA A/Texas/50/2012, recombinant soluble trimer (influenza A virus); experiment: ELISA on coated recombinant HA; remark: listed apart in the source
[40] = target: A/Tennessee/3/2019 (Influenza A virus); experiment: ELISA on coated recombinant HA
[41] = target: A/Turkey/Ontario/6118/1967 (Influenza A virus); experiment: ELISA on coated recombinant HA
[42] = target: A/Taiwan/2/2013 (Influenza A virus); experiment: ELISA on coated recombinant HA; remark: listed apart in the source
[43] = target: H5 HA A/Vietnam/1203/2004 (H5N1), recombinant (influenza A virus); experiment: ELISA on coated recombinant HA; remark: listed apart in the source
[44] = target: A/Puerto Rico/8/1934 (Influenza A virus); experiment: ELISA on coated recombinant HA
[45] = target: H2 HA A/Singapore/1/1957, recombinant soluble trimer (influenza A virus); experiment: ELISA on coated recombinant HA; remark: listed apart in the source
[46] = target: H5 HA A/Indonesia/05/2005 (H5N1), recombinant (influenza A virus); experiment: ELISA on coated recombinant HA; remark: listed apart in the source
[47] = target: H12 HA A/duck/Alberta/60/1976, recombinant (influenza A virus); experiment: ELISA on coated recombinant HA; remark: listed apart in the source
[48] = target: H3 HA A/Hong Kong/1/1968 (H3N2), recombinant soluble trimer (influenza A virus) (UniProt Q91MA7); experiment: ELISA on coated recombinant HA
[49] = target: H3 HA A/Victoria/361/2011 (H3N2) (influenza A virus); experiment: BLI, biotinylated HA on streptavidin sensor
[50] = target: H1 HA A/Solomon Islands/03/2006 (H1N1), recombinant soluble trimer (influenza A virus); experiment: BLI, biotinylated HA on streptavidin sensor
[51] = target: H3 HA A/Victoria/3/1975 (H3N2) (influenza A virus); experiment: BLI, biotinylated HA on streptavidin sensor
[52] = target: H5 HA A/Vietnam/1203/2004 (H5N1), recombinant (influenza A virus); experiment: BLI, biotinylated HA on streptavidin sensor
[53] = target: H5 HA A/Indonesia/05/2005 (H5N1), recombinant (influenza A virus); experiment: BLI, biotinylated HA on streptavidin sensor
[54] = target: H12 HA A/duck/Alberta/60/1976, recombinant (influenza A virus); experiment: ELISA
[55] = target: H15 HA A/shearwater/Western Australia/2576/1979, recombinant (influenza A virus); experiment: ELISA

Substance: C05 (antibody)
- Kd [1]: 170 nM
- Kd [2]: 86 nM

Substance: CH65 (antibody)
- Kd [2]: 340 nM

Substance: FluA-20 (hybridoma-produced IgG) (antibody)
- EC50 [3]: 0.013 µg/mL
- EC50 [4]: 0.019 µg/mL
- EC50 [5]: 0.004 µg/mL
- EC50 [6]: > 10 µg/mL
- EC50 [7]: > 10 µg/mL
- EC50 [8]: 0.005 µg/mL
- EC50 [9]: 0.009 µg/mL
- EC50 [10]: 0.283 µg/mL
- EC50 [11]: 0.066 µg/mL
- EC50 [12]: 0.808 µg/mL
- EC50 [13]: 0.007 µg/mL
- EC50 [14]: 0.07 µg/mL
- EC50 [15]: 0.004 µg/mL
- EC50 [16]: 0.085 µg/mL
- EC50 [17]: 0.021 µg/mL
- EC50 [18]: 0.006 µg/mL
- NK cell activation (% of NK cells with IFN-γ and/or CD107a) at 0.1 µg/mL FluA-20 [19]: 1.3%
- NK cell activation (% of NK cells with IFN-γ and/or CD107a) at 1 µg/mL FluA-20 [19]: 9.2%
- NK cell activation (% of NK cells with IFN-γ and/or CD107a) at 10 µg/mL FluA-20 [19]: 14.6%
- EC50 [20]: > 2.5 µg/mL
- EC50 [21]: 0.006 µg/mL
- EC50 [22]: 0.007 µg/mL
- EC50 [23]: 0.008 µg/mL
- EC50 [24]: 0.006 µg/mL
- EC50 [25]: 0.007 µg/mL
- EC50 [26]: 0.008 µg/mL
- EC50 [27]: 0.007 µg/mL
- EC50 [28]: 0.061 µg/mL
- EC50 [29]: 0.142 µg/mL
- EC50 [30]: 0.012 µg/mL
- EC50 [31]: 0.022 µg/mL
- EC50 [32]: 0.009 µg/mL
- EC50 [33]: 0.009 µg/mL
- EC50 [34]: 0.007 µg/mL
- EC50 [35]: 0.016 µg/mL
- EC50 [36]: 0.037 µg/mL
- EC50 [37]: 0.009 µg/mL
- EC50 [38]: 0.009 µg/mL
- EC50 [39]: 0.008 µg/mL
- EC50 [40]: 0.007 µg/mL
- EC50 [41]: 0.004 µg/mL
- EC50 [42]: 0.073 µg/mL
- EC50 [43]: 0.036 µg/mL
- EC50 [44]: 0.005 µg/mL
- EC50 [45]: 0.007 µg/mL
- EC50 [46]: 0.015 µg/mL

Substance: MEDI-8852 (antibody)
- EC50 [17]: 0.063 µg/mL
- EC50 [18]: 0.018 µg/mL
- EC50 [20]: 0.117 µg/mL
- EC50 [47]: 0.361 µg/mL
- EC50 [37]: 0.043 µg/mL
- EC50 [48]: 0.014 µg/mL
- EC50 [38]: 0.069 µg/mL
- EC50 [39]: 0.024 µg/mL
- EC50 [40]: 0.014 µg/mL
- EC50 [41]: 0.081 µg/mL
- EC50 [42]: 0.157 µg/mL
- EC50 [43]: 0.009 µg/mL
- EC50 [44]: 0.013 µg/mL
- EC50 [45]: 0.023 µg/mL
- EC50 [46]: 0.134 µg/mL

Substance: rFluA-20 Fab
- Kd [49]: 15 nM
- Kd [50]: 2 nM
- Kd [51]: 3460 nM
- Kd [52]: 122 nM
- Kd [53]: 88 nM

Substance: rFluA-20 IgG (recombinant FluA-20) (antibody)
- EC50 [54]: 0.006 µg/mL
- EC50 [3]: 0.007 µg/mL
- EC50 [5]: 0.007 µg/mL
- EC50 [8]: 0.008 µg/mL
- EC50 [55]: 0.007 µg/mL
- EC50 [9]: 0.007 µg/mL
- EC50 [11]: 0.013 µg/mL
- EC50 [13]: 0.011 µg/mL
- EC50 [15]: 0.008 µg/mL
- EC50 [16]: 0.016 µg/mL
- EC50 [21]: 0.006 µg/mL
- EC50 [22]: 0.007 µg/mL
- EC50 [23]: 0.009 µg/mL
- EC50 [24]: 0.007 µg/mL
- EC50 [25]: 0.007 µg/mL
- EC50 [26]: 0.008 µg/mL
- EC50 [27]: 0.007 µg/mL
- EC50 [28]: 0.063 µg/mL
- EC50 [29]: 0.133 µg/mL
- EC50 [30]: 0.013 µg/mL
- EC50 [31]: 0.016 µg/mL
- EC50 [32]: 0.011 µg/mL
- EC50 [33]: 0.008 µg/mL
- EC50 [34]: 0.007 µg/mL
- EC50 [35]: 0.016 µg/mL
- EC50 [36]: 0.041 µg/mL
